Reference: PMC4091826 (Molecular Biology of the Cell, 2014)
Changes are numbered by the printed parent chain. Names and notes keep the numbering of the source. “Also recorded” adds a separate entry of the source. No end group written: not given here.

T1: fluorescein-labeled P5 peptide (also: fluorescein label, position not given here)
T1 peptide: CALLLSAPRR

B1: D416R (protein)
chain: QSTKVQGSVIGIDLGTTNSAVAIMEGKVPKIIENAEGSRTTPSVVAFTKEGERLVGIPAKRQAVVNPENTLFATKRLIGRRFEDAEVQRDIKQVPYKIVKHSNGDAWVEARGQTYSPAQIGGFVLNKMKETAEAYLGKPVKNAVVTVPAYFNDSQRQATKDAGQIVGLNVLRVVNEPTAAALAYGLEKSDSKVVAVFDLGGGTFDISILDIDNGVFEVKSTNGDTHLGGEDFDIYLLREIVSRFKTETGIDLENDRMAIQRIREAAEKAKIELSSTVSTEINLPFITADASGPKHINMKFSRAQFETLTAPLVKRTVDPVKKALKDAGLSTSDISEVLLVGGMSRMPKVVETVKSLFGKDPSKAVNPDEAVAIGAAVQGAVLSGEVTDVLLLRVTPLSLGIETLGGVFTRLIPRNTTIPTKKSQIFSTAAAGQTSVEIRVFQGERELVRDNKLIGNFTLAGIPPAPKGVPQIEVTFDIDADGIINVSARDKATNKDSSITVAGSSGLSENEIEQMVNDAEKFKSQDEARKQAIETANKADQLANDTENSLKEFEGKVDKAEAQKVRDQITSLKELVARVQGGEEVNAEELKTKTEELQTSSMKLFEQLYKNDSNNNNNNNGNNAESGETKQ
modifications: left off: His6, end not stated, state not stated
B2: D411R (protein)
chain: B1 chain with D388R, R393D
modifications: left off: His6, end not stated, state not stated
B3: E467A-D411R (protein)
chain: B1 chain with D388R, R393D, E444A
modifications: left off: His6, end not stated, state not stated
B4: S209 (protein)
chain: B1 chain with R393D, E444A, K467R
modifications: left off: His6, end not stated, state not stated
B5: G466E (protein)
chain: B1 chain with R393D, G443E
modifications: left off: His6, end not stated, state not stated
B6: Q465A (protein)
chain: B1 chain with R393D, Q442A
modifications: left off: His6, end not stated, state not stated
B7: WT Ssc1: Wild type Ssc1 (His6), yeast mtHsp70 (protein)
chain: B1 chain with R393D
modifications: left off: His6, end not stated, state not stated
B8: S2-V524I: suppressor S2-V524I subcloned into the E467A-D411R backbone (protein)
chain: B1 chain with R393D, E444A, V501I
modifications: left off: His6, end not stated, state not stated
B9: E467A-D416R (protein, UniProt P0CS90 24-654, looked up, variant E467A D416R)
Import motor subunit, …: B1 chain with E444A
B10: S1-D519E: suppressor S1-D519E subcloned into the E467A-D411R backbone (protein)
chain: B1 chain with R393D, E444A, D496E
modifications: left off: His6, end not stated, state not stated
B11: S7-N508T: suppressor S7-N508T subcloned into the E467A-D411R backbone (protein)
chain: B1 chain with R393D, E444A, N485T
modifications: left off: His6, end not stated, state not stated
B12: Ssc1 E467A suppressor S201 (E467A, D519E), purified (natural protein, S. cerevisiae, UniProt P0CS90 24-654, looked up)
chain: B1 chain with R393D, E444A, D496E
B13: Ssc1 E467A suppressor S203 (E467A, D519Y), purified (natural protein, S. cerevisiae, UniProt P0CS90 24-654, looked up)
chain: B1 chain with R393D, E444A, D496Y
B14: Ssc1 E467A suppressor S204 (E467A, D519N), purified (natural protein, S. cerevisiae, UniProt P0CS90 24-654, looked up)
chain: B1 chain with R393D, E444A, D496N
B15: Ssc1 E467A suppressor S208 (E467A, D519G), purified (natural protein, S. cerevisiae, UniProt P0CS90 24-654, looked up)
chain: B1 chain with R393D, E444A, D496G
B16: Ssc1 E467A suppressor S209 (E467A, K490R), purified (natural protein, S. cerevisiae, UniProt P0CS90 24-654, looked up)
chain: B1 chain with R393D, E444A, K467R
B17: Ssc1 E467A suppressor S207 (E467A, N508T), purified (natural protein, S. cerevisiae, UniProt P0CS90 24-654, looked up)
chain: B1 chain with R393D, E444A, N485T
B18: Ssc1 E467A suppressor S202 (E467A, V524I), purified (natural protein, S. cerevisiae, UniProt P0CS90 24-654, looked up)
chain: B1 chain with R393D, E444A, V501I
B19: Ssc1 E467A suppressor S205 (E467A, N508K), purified (natural protein, S. cerevisiae, UniProt P0CS90 24-654, looked up)
chain: B1 chain with R393D, E444A, N485K

What follows are molecules tested on Ssc1 (assay: Tryptophan fluorescence quenching upon ATP binding, Ssc1). Conditions: 2.5 μM protein, 1000-fold excess ATP, wild type set at 100%.
Assay type: biochemical, S. cerevisiae
For B1, the “tryptophan fluorescence quenching upon ATP binding, in words” value was “significantly lowered quenching of tryptophan fluorescence”. In the case of B2, the “tryptophan fluorescence quenching upon ATP binding, in words” value is reported as “modest reductions”. With B3 the “tryptophan fluorescence quenching upon ATP binding, in words” value was “markedly compromised”.

The molecules below were run on Ssc1 (assay: Single-turnover basal ATPase assay, Ssc1). Conditions: 25°C.
Assay type: biochemical, S. cerevisiae
B4 was tested, and the “basal ATPase activity, in words” value was “able to suppress the elevated basal activity of the mutant”.

Same assay, conditions: 25°C, buffer A, versus wild type
In the case of B1, the “fold increase in basal ATPase activity” value is reported as 4.5 fold. In the case of B5, the “fold increase in basal ATPase activity” value is reported as 11 fold. In the case of B6, the “fold increase in basal ATPase activity” value is reported as 2.25 fold. For B2, the “fold increase in basal ATPase activity” value was “twofold increase”.

Each molecule was assayed on Tim44 (assay: Coimmunoprecipitation of Ssc1 with Tim44). Conditions: mitochondrial lysates, anti-Ssc1, presence or absence of 1 mM ATP; Figure 6A.
Assay type: binding, S. cerevisiae
With B7 the “interaction with Tim44, in words” value was “robust interaction with Tim44 in the absence of ATP, and this binding was sensitive to the presence of ATP”.

What follows are molecules tested on yeast cells (assay: Growth phenotype). Conditions: minimal medium or 5-FOA medium, serial dilutions.
Assay type: cell-based, S. cerevisiae
In the case of B1, the “growth phenotype, in words” value is reported as “severe growth defect, as evidenced by its inviability on 5-FOA medium; also recorded: inviable”. B8 was tested, and the “growth phenotype, in words” value was “significant growth rescue of the E467A-D411R–associated lethality at different temperatures on 5-FOA medium”. For B9, the “growth phenotype, in words” value was “semidominant phenotype”. B5 was tested, and the “growth phenotype, in words” value was “lethal and unable to grow on 5-FOA medium”. B6 was tested, and the “growth phenotype, in words” value was “viable at 30 °C but displayed temperature sensitivity at 34 and 37 °C”. For B2, the “growth phenotype, in words” value was “did not result in a growth defect; also recorded: completely viable”. In the case of B3, the “growth phenotype, in words” value is reported as “lethal, as demonstrated by lack of growth on 5-FOA”. For B10, the “growth phenotype, in words” value was “significant growth rescue of the E467A-D411R–associated lethality at different temperatures on 5-FOA medium”. For B11, the “growth phenotype, in words” value was “significant growth rescue of the E467A-D411R–associated lethality at different temperatures on 5-FOA medium”.

Target: T1, fluorescein-labeled P5 peptide
Assay: fluorescence polarisation
Conditions: not given
For B12, the “substrate release upon ATP binding” value was over 50%. With B13 the “substrate release upon ATP binding” value was over 50%. With B14 the “substrate release upon ATP binding” value was over 50%. For B15, the “substrate release upon ATP binding” value was over 50%. With B16 the “substrate release upon ATP binding” value was over 50%. With B17 the “substrate release upon ATP binding” value was over 50%. B18 was tested, and the “substrate release upon ATP binding” value was over 50%. With B19 the “substrate release upon ATP binding” value was over 50%.

The molecules below were run on Ssc1 (assay: Limited proteolytic cleavage by trypsin). Conditions: 1:100 (wt/wt) trypsin, 25°C, SDS-PAGE.
Assay type: biochemical, S. cerevisiae
In the case of B7, the “trypsin cleavage pattern, in words” value is reported as “limited proteolysis pattern, leading to formation of stable 30-kDa fragments”.

The molecules below were run on Ssc1 (assay: ATP-induced substrate release by fluorescence anisotropy, Ssc1). Conditions: 2.5 mM ATP, 5 μM Ssc1[F-P5], 5 min.
Assay type: biochemical, S. cerevisiae
For B2, the “ATP-induced substrate release, in words” value was “modest reductions”. B3 was tested, and the “ATP-induced substrate release, in words” value was “markedly compromised in ATP-dependent conformational changes required for release of bound substrate”.

Same assay, conditions: 2.5 mM ATP, 5 μM Ssc1[F-P5], anisotropy decrease up to 5 min
With B1 the “substrate (peptide) release upon ATP addition” value was under 10%.

These molecules were tested on Ssc1 (assay: Stimulation of ATPase activity by P5 peptide, Ssc1). Conditions: 100-fold molar excess P5, single-turnover.
Assay type: biochemical, S. cerevisiae
In the case of B1, the “stimulation of ATPase activity by P5, in words” value (shortened to “stimulation of ATPase activity”) is reported as “stimulated fivefold less by P5 as compared with the wild-type protein”. B4 was tested, and the “stimulation of ATPase activity” value was “could stimulate ATPase activity similar to wild-type levels; also recorded: augment peptide-mediated ATPase stimulation”. B2 was tested, and the “stimulation of ATPase activity” value was “modest reductions in stimulation of ATPase activity by substrate”. In the case of B3, the “stimulation of ATPase activity” value is reported as “severely impaired stimulation by substrate”.
